Assay: hepatic Ceacam1 mRNA and protein levels
Details: glycan changed form; control: Slc35c1 flox/flox mice

B1: CEACAM1 (Ceacam1): Slc35c1 cKO (protein)
parent chain: MELASAHLHKGQVPWGGLLLTASLLASWSPATTAEVTIEAVPPQVAEDNNVLLLVHNLPLALGAFAWYKGNTTAIDKEIARFVPNSNMNFTGQAYSGREIIYSNGSLLFQMITMKDMGVYTLDMTDENYRRTQATVRFHVHQPVTQPFLQVTNTTVKELDSVTLTCLSNDIGANIQWLFNSQSLQLTERMTLSQNNSILRIDPIKREDAGEYQCEISNPVSVRRSNSIKLDIIFDPTQGGLSDGAIAGIVIGVVAGVALIAGLAYFLYSRKSGGGSDQRDLTEHKPSTSNHNLAPSDNSPNKVDDVAYTVLNFNSQQPNRPTSAPSSPRATETVYSEVKKK
Question: Which expression_or_secretion does the source give for B1 here?
Answer: Its expression_or_secretion is “no change”.
